The record followed here is the DeepSol protein solubility set.

The nature of this data set: soluble on expression in E. coli; label from the status in PepcDB or PDB records.
For “MHSAKNEKCNACGGYRFSVNDGFKYCDRCGALFENFEELEEEEGGLQQTVGQGKVKVRKNDDQKRVRNNAAPVNLPKAQVMREALEKRSDFLQQQAIKGEELELPHDATPDYLYRLALRLFSFTQILAKSGHILVHELNFESRVQENILATFQKYLAHCQVAFCHSEQCGNDEHLRFVAVMENLRYEQEEREEKQRKRMAKRGKGVNALSKSAAAWTLLTQGNITEHLDIASDEDGDQDAQGGQQLDDLTLETTQNPDESIRVNDTTMGFVRKVTTALSKEALRRASQLILNLEMLVAILHSALMSSGYQTILTSDVVRWIREDRFRISRRSIRLIRQSQPERMKQGEVVKPTIVDYAEPFLRFPLYEIMRTCTIFHQSLKLASSMAPQSFESMSARLVDNLNLPSDILSRMLILESIIPCDVSPQLLKQVDVDMGYNCGQLAAMSPNVYYSGFLTSFGRKERGTQDADFCDEVLLSPDAKLIAYLLLTLRLTFQLDNAQCALQDDQYFDVDSWIHQLEMRIKCWQGHNMSLVMRSSSHVPEMVVDPPFGTNYLFHQEKGAPQVSCRRRQAGFQKCIPTEMSFNSTSTLPTVFDVRHMGLLTERCQMEALISPVKFQRTVLGNEIERDPLTFENVDRQSKNTFFKHFSAFKTTESCDTFEEYFPCAKNYLLFKRPDWIQNCTARQTHFNPVTGPIRFYLSNQSCDDLLGTAATSFSRRFQFLLDALSLIIGEDKKAVYAAFVMLEMHLTSSERIQSIRDDLLTSSPITLKCQKFRNSTHHIPRKYGVISEVPIDRIENLRYFRLSRQFFEHEEMPTTINMELIDYRNQEIRDSVTETEVQRAQNRIMKLCYEFEQFFGILAVKFW”, the “soluble on expression in E. coli” value is listed as “soluble”.

“MKKPNHSGSGQIRIIGGQWRGRKLPVPDSPGLRPTTDRVRETLFNWLAPVIVDAQCLDCFAGSGALGLEALSRYAAGATLIEMDRAVSQQLIKNLATLKAGNARVVNSNAMSFLAQKGTPHNIVFVDPPFRRGLLEETINLLEDNGWLADEALIYVESEVENGLPTVPANWSLHREKVAGQVAYRLYQREAQGESDAD”: the “soluble on expression in E. coli” value was “soluble”. As for “MTALGLIETKGLLAAVEAADAMLKAADVRLLEKNLASGGLVTITVAGEVSAVRAAVDAGVSAIRRVNAASLVSEHVIARPDEGVSRVVSLVPPAAVPPAAPPVQAPAGDSGAQQPVQEAAEAEPQTGSTVEEQTPAAVEASPAPAAAAPRTETVRYEISQLKKMNVSRLRQVARGVSGLSIPREAVKSANKKDLIDAIINSYRQIEE”, the “soluble on expression in E. coli” value is “not soluble”. Regarding “MNLLKTIEKVKANWGGKYFSIEFVKNPKKVVRDWRNSGGIVVHLTMYGIPIDNIMEKIINKNTKILVVVGSEKVEGWYYYNSDYNIAIGNQPHSEVAALAIFLDRIYKGGELNIQFSDAKLSIIPQERGKKVRKNE”, the “soluble on expression in E. coli” value was “soluble”. For the sequence “MAYWLLKSEPQVYGIEDLEREGRAIWDGVRNYQARNYLMQMKEGDLCFFYHSGTTPPGIAGRCRVVRTLLPDPTQFDPESPYYDPKATPEKPRWYTVEVAFVEKWPLVPLAELKALFPPDHPLVKRGNRLSVMPVPPEVAEALIVRRGSR”, the “soluble on expression in E. coli” value was “soluble”. Turning to “MGSDKIHHHHHHMMTDARTTAEGGMETSYGFHKVDEGKKQGLVNEVFHKVAKRYDIMNDVMSAGLHRLWKDAMVSALSPRKDPSYKILDVAGGTGDVAFRIIEASNRLAHATVLDINGSMLAVGEERAAKKKLSDNLTFVEANAEELPFEANTFDAYTVAFGIRNVPRIDVALKEAYRVLKRGGRLLVLEFSEVDMPLLDRVYDAWSFNAIPQFGKMITGDAEPYQYLVESIRKFPNQEDFATMIRTAGFSRVTYTNYTGGIAALHSGWKL”, the “soluble on expression in E. coli” value is recorded as “not soluble”. Consider “NYGMVPFAGIPYYACPFGRDSIITSWFLLPYYPQYAEGTLKFFAKIQGKKFNPLNEEEPGKIPHEFRFGELSHSRKMPFAPYYGTVDATPLYVILAAEYLRWTGDRELIERLKPNLTAAVEWILRRLDEGGGYIRYKGGLLANQGWKDSKEGIPTEEGTPTKPPVALVEVQGYAYKALMDAASLGLTSLDPKMLKKEAEELKKRFNKDFWCDGFYALALDGDNVPSKVVSSNMGHLLFTGIAEHQEKIAERLFEEDMFSGWGIRTLSSKEKAYNPFSYHNGSIWPHDNAVIAIGLASIGEKEKARMLAEAIFKTAKFLPNSQLPELFSGLESEYPLLCPRANAPQAWSAASVFALLTALLGLKA”, for which the “soluble on expression in E. coli” value is on record as “not soluble”. In the case of “MPKDWDAFYRNAPEDRPPAFVVRAYGPFVPQGPVLDLAGGLGRNARYFLQRGHPVVLVERSREALRRLSGTPGLTLVALDLEGADAPQSLPQGPFAGIVMAYYVNRPLLQGLAPLLLPGGLVLVEGFSRKEALRRGRPHSPFYWEGEELLTPPPGLALRAFGEGWMEGYRVYAVYLRP” it was “soluble”.
